In the data set the test system is Saccharomyces cerevisiae. The experiment in a line: protein stability index of tFT-peptide fusion (C-terminal peptide) (PSI (0-1 scale)); higher = more stable (slower turnover). As to conditions: temperature: 30 C. As to the method:
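MPS profiling in S. cerevisiae of the yeast C-terminome library: the last 12 aa of each annotated ORF are fused to the C-terminus of a sfGFP-mCherry timer, after a GGGS linker. Cells are FACS-sorted into 8 mCherry/sfGFP bins and deep-sequenced. PSI runs from 0 (unstable) to 1 (stable); wild type and das1Δ backgrounds, two technical replicates each.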

Setting [1] is: genetic background: das1 deletion.

For 50 sequences, protein stability index results are on record in the supplement of paper PMC10724198.

± gives the standard deviation of the averaged measurements.

As for TDVVLCARLADD [RIB7 C-terminal 12 aa], the protein stability index is, setting by setting: under setting [1], 0.676 ± 0.014; (genetic background: wild type) 0.7 ± 0.038.
The matching figures for TEFGITKENLGE [TOG1 C-terminal 12 aa]: 0.697 ± 0.03 and 0.691 ± 0.032.
The like results for “TEIPYKPFTRQP [YOR293C-A C-terminal 12 aa]” were, in that order, 0.724 ± 0.0085 and 0.739 ± 0.013.
For the sequence TFHTVGDRYEMA [YPR127W C-terminal 12 aa], the protein stability index runs as follows: under setting [1], 0.7019 ± 0.006; (genetic background: wild type) 0.69654 ± 0.00054.
The like results for TGKVFTRTNQSK [YFL019C C-terminal 12 aa] were, in that order, 0.71 ± 0.035 and 0.698 ± 0.011.
The matching figures for THNEGSSVKKMH [SLC1 C-terminal 12 aa]: 0.694 ± 0.045 and 0.674 ± 0.037.
On to THPAGTLENATQ [YIL102C C-terminal 12 aa], for which the protein stability index runs as follows: under setting [1], 0.694 ± 0.022; (genetic background: wild type) 0.742 ± 0.017.
In the case of TISNPFGDHNKI [LSB5 C-terminal 12 aa], the protein stability index is, setting by setting: under setting [1], 0.727 ± 0.034; (genetic background: wild type) 0.738 ± 0.099.
Turning to TKAVHINLSLDN [ALD2 C-terminal 12 aa], the protein stability index reads like this: under setting [1], 0.69 ± 0.0043; (genetic background: wild type) 0.702 ± 0.015.
The like results for TKEYMDSIRSAK [VPS45 C-terminal 12 aa] were, in that order, 0.687 ± 0.023 and 0.766 ± 0.099.
The matching figures for TKKSTGKGPASS [BOL3 C-terminal 12 aa]: 0.7 ± 0.033 and 0.675 ± 0.03.
The like results for TLFCLLFRFIIF [YIP5 C-terminal 12 aa] were, in that order, 0.265 ± 0.0053 and 0.2739 ± 0.001.
As to TLGEVINELNNK [VAM6 C-terminal 12 aa], the protein stability index reads like this: under setting [1], 0.7226 ± 0.0022; (genetic background: wild type) 0.676 ± 0.011.
The matching figures for TLHLVLRLRGGN [UBI4 C-terminal 12 aa]: 0.665 ± 0.013 and 0.687 ± 0.067.
The matching figures for TLSYIRVHKLVK [TYC1 C-terminal 12 aa]: 0.647 ± 0.019 and 0.493 ± 0.015.
The matching figures for “TMVERRVSFTAQ [YER119C-A C-terminal 12 aa]”: 0.73 ± 0.031 and 0.711 ± 0.022.
The sequence TNIIRETLKSLN [ATP22 C-terminal 12 aa] registered a protein stability index under setting [1] of 0.786 ± 0.1.
Take TNNRHKYQNGRK [YLL032C C-terminal 12 aa]: the protein stability index is 0.7 ± 0.053 under setting [1] and 0.664 ± 0.0094 (genetic background: wild type).
The sequence TNPHQADASPKK [MPE1 C-terminal 12 aa] returned a protein stability index under setting [1] of 0.71 ± 0.023 and a protein stability index (genetic background: wild type) of 0.702 ± 0.021.
As to TQKLNEKSSKES [ATC1 C-terminal 12 aa], the protein stability index worked out at 0.715 ± 0.031 under setting [1] and 0.644 ± 0.036 (genetic background: wild type).
The sequence “TSASSNFDDSFS [YCR018C-A C-terminal 12 aa]” yielded a protein stability index under setting [1] of 0.6885 ± 0.0016 and a protein stability index (genetic background: wild type) of 0.717 ± 0.062.
The like results for TSGRYASYRICM [RPB5 C-terminal 12 aa] were, in that order, 0.6941 ± 0.0011 and 0.664 ± 0.011.
The like results for TSIESALITLDL [MER1 C-terminal 12 aa] were, in that order, 0.682 ± 0.016 and 0.695 ± 0.032.
The like results for TSPRAINPKRSA [YDL114W C-terminal 12 aa] were, in that order, 0.695 ± 0.021 and 0.703 ± 0.02.
In the case of TSSFTEAVIKRL [IDH2 C-terminal 12 aa], the protein stability index reads like this: under setting [1], 0.696 ± 0.011; (genetic background: wild type) 0.6628 ± 0.0025.
For TSSNPKSHQYSK [ROF1 C-terminal 12 aa], the protein stability index is, setting by setting: under setting [1], 0.717 ± 0.0022; (genetic background: wild type) 0.689 ± 0.029.
The like results for TSTNTIYATVTI [DSE2 C-terminal 12 aa] were, in that order, 0.688 ± 0.018 and 0.6656 ± 0.001.
The matching figures for TTRETPLPPIPA [TYW1 C-terminal 12 aa]: 0.609 ± 0.012 and 0.642 ± 0.015.
As to TTTEVETETAKQ [YPR063C C-terminal 12 aa], the protein stability index runs as follows: under setting [1], 0.679 ± 0.011; (genetic background: wild type) 0.7 ± 0.027.
The matching figures for TTWKTTCKIFGE [YBL055C C-terminal 12 aa]: 0.693 ± 0.019 and 0.712 ± 0.008.
In the case of TVETLLKLFTKS [SLD7 C-terminal 12 aa], the protein stability index was determined as 0.6879 ± 0.0025 under setting [1] and 0.69379 ± 0.00044 (genetic background: wild type).
The matching figures for “TVRKGVYMRLYY [YNL146C-A C-terminal 12 aa]”: 0.668 ± 0.0024 and 0.634 ± 0.036.
The like results for TYYRRRATANSL [YMR155W C-terminal 12 aa] were, in that order, 0.6958 ± 0.0045 and 0.676 ± 0.011.
With VACCGCNMTVAY [YIL058W C-terminal 12 aa], the protein stability index by setting is: under setting [1], 0.528 ± 0.015; (genetic background: wild type) 0.533 ± 0.029.
As to VANTTNMNMNLM [DIA1 C-terminal 12 aa], the protein stability index reads like this: under setting [1], 0.6954 ± 0.0035; (genetic background: wild type) 0.737 ± 0.027.
The like results for VDKYEAGMSITK [SWC4 C-terminal 12 aa] were, in that order, 0.688 ± 0.0058 and 0.671 ± 0.03.
The like results for “VFEISNKELFLT [YIL029W-A C-terminal 12 aa]” were, in that order, 0.6922 ± 0.0023 and 0.452 ± 0.016.
For the sequence VFLKKDTDIYIC [YML084W C-terminal 12 aa], the protein stability index is, setting by setting: under setting [1], 0.63 ± 0.019; (genetic background: wild type) 0.612 ± 0.03.
For VFRIVARGYVGW [BBC1 C-terminal 12 aa], the protein stability index runs as follows: under setting [1], 0.701 ± 0.04; (genetic background: wild type) 0.691 ± 0.046.
As to VFVTGILSTVYI [AIT1 C-terminal 12 aa], the protein stability index is 0.6444 ± 0.0011 under setting [1] and 0.6108 ± 0.0049 (genetic background: wild type).
Consider VGELDIKFDLKF [RTF1 C-terminal 12 aa], for which the protein stability index under setting [1] was found to be 0.733 ± 0.018 and the protein stability index (genetic background: wild type) amounted to 0.696 ± 0.0088.
The like results for VGLDDLKKLVTK [PCF11 C-terminal 12 aa] were, in that order, 0.713 ± 0.03 and 0.744 ± 0.099.
As for VIAQIDELFEGY [THG1 C-terminal 12 aa], the protein stability index stood at 0.726 ± 0.0083 under setting [1] and 0.711 ± 0.019 (genetic background: wild type).
As for VIFLFLRTIHFL [PGC1 C-terminal 12 aa], the protein stability index was 0.501 ± 0.015 under setting [1] and 0.142 ± 0.0083 (genetic background: wild type).
The like results for VIGEKGITDSSD [DMC1 C-terminal 12 aa] were, in that order, 0.733 ± 0.023 and 0.721 ± 0.018.
The like results for VIWDNNTKFCWF [YGR111W C-terminal 12 aa] were, in that order, 0.742 ± 0.0097 and 0.73063 ± 0.00022.
The matching figures for VIWEKVYESKTK [LSM8 C-terminal 12 aa]: 0.724 ± 0.018 and 0.761 ± 0.057.
In the case of VIWQERETTANK [EMI1 C-terminal 12 aa], the protein stability index turned out to be 0.724 ± 0.033 under setting [1] and 0.676 ± 0.038 (genetic background: wild type).
As to VKHKVVSVDEDN [MPM1 C-terminal 12 aa], the protein stability index by setting is: under setting [1], 0.681 ± 0.014; (genetic background: wild type) 0.6529 ± 0.001.
The matching figures for VKKEPLNEESKP [MIA40 C-terminal 12 aa]: 0.7041 ± 0.0021 and 0.679 ± 0.026.
